Ends that are not written are not given here. * marks the point of attachment. FITC = O=C1OC2(c3ccc(O)cc3Oc3cc(O)ccc32)c2ccc(NC(=S)*)cc21
T1: eVP30 110-272 (Ebola virus (Zaire), UniProt Q05323 110-272)
T1 sequence: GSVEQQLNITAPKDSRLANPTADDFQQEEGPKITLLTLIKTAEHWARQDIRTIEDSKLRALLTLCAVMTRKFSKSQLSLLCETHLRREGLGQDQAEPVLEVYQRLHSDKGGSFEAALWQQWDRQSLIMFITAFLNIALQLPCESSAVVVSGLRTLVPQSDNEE


Target: T1, eVP30 110-272
Assay: fluorescence polarisation
Details: both partners purified

Row | Binder | binding result
1 | RTPTVAPPAPVYRDHS [unlabeled eNP600-615 peptide] | binds
2 | {FITC}-RTPTVAPPAPVYRDHS [FITC-labeled eNP600-615 peptide] | binds

From publication PMC5472179 (Nature Communications, 2017)
